In patent US20030100021A1:

Key:
Test in all cases: cell-based or functional assay
[1] = target: EpoR/LepR-F3-EpoR chimeric bait receptor (pSEL1-EpoR) (human; mouse) (UniProt P19235)
[2] = target: LepR-IRS1 bait receptor (pMET7 LepR-IRS1) (mouse; human) (UniProt P48356)
[3] = target: EpoR/LepR-F3-p53 chimeric bait receptor (pSEL1-p53) (human; mouse) (UniProt P19235)
[4] = target: βc/LepR-F3-ALK4CA + GM-CSFRα/LepR-F3-Smad3 heteromeric bait receptor (Example 8, transfection a) (mouse; human) (UniProt P32927)
[5] = target: βc/LepR-F3-Smad3 + GM-CSFRα/LepR-F3-ALK4CA heteromeric bait receptor (Example 8, transfection b) (mouse; human) (UniProt P32927)
[6] = target: LepR Y985/1077F mutant (pMET7 LepRY985/1077F) (mouse) (UniProt P48356)
Chain of LepR Y985/1077F mutant (pMET7 LepRY985/1077F) (mouse) (P48356 other isoform, or with tags, fused parts or gaps mutant): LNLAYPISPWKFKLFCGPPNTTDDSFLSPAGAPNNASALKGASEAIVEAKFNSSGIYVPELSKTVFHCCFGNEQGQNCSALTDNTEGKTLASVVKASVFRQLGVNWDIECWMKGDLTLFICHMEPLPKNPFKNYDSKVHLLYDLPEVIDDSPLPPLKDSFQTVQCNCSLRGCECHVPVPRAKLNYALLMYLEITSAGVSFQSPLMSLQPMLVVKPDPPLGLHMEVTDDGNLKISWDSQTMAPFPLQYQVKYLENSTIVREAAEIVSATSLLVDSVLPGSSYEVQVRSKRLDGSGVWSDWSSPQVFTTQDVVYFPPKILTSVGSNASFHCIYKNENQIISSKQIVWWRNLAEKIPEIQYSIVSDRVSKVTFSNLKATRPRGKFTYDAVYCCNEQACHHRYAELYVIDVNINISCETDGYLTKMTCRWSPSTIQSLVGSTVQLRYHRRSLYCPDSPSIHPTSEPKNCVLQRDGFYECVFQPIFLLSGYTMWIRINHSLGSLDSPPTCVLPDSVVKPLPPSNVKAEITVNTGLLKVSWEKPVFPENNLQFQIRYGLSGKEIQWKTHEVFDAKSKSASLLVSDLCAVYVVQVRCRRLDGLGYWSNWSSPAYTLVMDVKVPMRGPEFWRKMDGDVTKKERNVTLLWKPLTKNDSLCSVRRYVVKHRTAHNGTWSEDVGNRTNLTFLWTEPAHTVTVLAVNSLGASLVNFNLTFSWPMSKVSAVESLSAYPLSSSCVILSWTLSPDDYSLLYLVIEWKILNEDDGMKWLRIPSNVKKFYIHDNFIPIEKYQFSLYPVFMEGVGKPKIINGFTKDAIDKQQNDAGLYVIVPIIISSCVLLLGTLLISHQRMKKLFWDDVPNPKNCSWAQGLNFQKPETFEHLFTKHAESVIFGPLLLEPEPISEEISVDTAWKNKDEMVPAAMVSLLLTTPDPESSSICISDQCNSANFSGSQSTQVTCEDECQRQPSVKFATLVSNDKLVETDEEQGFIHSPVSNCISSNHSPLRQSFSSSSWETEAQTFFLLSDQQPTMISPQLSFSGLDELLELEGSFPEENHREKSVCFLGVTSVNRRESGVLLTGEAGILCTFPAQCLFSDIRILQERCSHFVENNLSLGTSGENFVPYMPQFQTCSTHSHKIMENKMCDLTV

Chain of flag-gp130-SVT prey (pMG1-SVT; pMET7-flag-gp130-SVT) (P40189 761-918, tags or fused parts left off): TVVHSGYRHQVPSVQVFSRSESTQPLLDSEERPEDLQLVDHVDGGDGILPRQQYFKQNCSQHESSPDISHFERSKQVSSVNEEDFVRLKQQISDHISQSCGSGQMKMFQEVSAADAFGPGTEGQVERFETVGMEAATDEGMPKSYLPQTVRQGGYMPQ
Chain of EpoR/LepR-F3-p53 chimeric bait receptor (pSEL1-p53) (human; mouse) (P19235 other isoform, or with tags, fused parts or gaps mutant limits assumed, form in doubt): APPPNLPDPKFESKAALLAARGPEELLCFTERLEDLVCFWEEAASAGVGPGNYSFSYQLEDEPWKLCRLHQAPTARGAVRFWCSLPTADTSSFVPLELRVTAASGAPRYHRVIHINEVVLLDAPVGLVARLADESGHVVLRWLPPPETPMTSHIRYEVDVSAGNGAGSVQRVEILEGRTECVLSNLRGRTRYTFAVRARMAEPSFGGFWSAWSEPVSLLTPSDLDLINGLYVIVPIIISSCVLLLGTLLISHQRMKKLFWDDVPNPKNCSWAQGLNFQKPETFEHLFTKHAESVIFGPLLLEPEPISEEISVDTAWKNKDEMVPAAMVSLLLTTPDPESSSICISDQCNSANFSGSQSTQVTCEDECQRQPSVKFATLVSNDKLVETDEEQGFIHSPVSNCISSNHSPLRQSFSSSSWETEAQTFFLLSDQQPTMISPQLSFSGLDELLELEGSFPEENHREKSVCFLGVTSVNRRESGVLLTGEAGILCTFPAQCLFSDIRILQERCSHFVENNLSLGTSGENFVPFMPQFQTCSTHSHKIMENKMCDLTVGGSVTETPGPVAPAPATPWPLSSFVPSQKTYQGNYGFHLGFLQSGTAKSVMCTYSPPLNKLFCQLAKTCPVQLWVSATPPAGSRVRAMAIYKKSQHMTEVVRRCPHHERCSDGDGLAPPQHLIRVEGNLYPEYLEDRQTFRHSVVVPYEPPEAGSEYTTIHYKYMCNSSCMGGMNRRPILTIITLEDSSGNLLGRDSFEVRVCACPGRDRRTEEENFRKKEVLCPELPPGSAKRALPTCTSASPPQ
Chain of EpoR/LepR-F3-EpoR chimeric bait receptor (pSEL1-EpoR) (human; mouse) (P19235 other isoform, or with tags, fused parts or gaps mutant limits assumed, form in doubt): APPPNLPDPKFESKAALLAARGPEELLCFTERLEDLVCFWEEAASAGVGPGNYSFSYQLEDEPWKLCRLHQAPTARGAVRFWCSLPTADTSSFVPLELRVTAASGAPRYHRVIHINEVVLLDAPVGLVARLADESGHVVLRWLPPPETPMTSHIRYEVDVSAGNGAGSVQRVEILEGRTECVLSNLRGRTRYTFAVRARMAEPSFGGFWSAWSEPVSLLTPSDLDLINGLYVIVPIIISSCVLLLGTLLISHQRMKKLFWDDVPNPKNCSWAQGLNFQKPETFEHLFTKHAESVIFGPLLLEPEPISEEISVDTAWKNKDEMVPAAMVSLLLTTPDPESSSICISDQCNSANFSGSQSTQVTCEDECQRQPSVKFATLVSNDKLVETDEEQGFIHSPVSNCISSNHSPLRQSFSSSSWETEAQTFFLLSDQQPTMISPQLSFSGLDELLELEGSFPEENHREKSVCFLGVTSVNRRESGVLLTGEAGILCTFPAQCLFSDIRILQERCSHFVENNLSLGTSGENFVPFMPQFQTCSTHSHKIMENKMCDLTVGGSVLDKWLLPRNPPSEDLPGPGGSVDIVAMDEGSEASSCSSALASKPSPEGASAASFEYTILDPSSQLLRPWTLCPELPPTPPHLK

flag-gp130-CIS prey (pMG1-CIS) (from UniProt P40189 761-918; Q62225 2-257)
luciferase activity (rPAP1-luci reporter), fold induction, erythropoietin [1]: 6.2 fold | luciferase activity (rPAP1-luci reporter), fold induction, erythropoietin plus forskolin [1]: 10.5 fold

flag-gp130-GRB2S prey (pMG1-GRB2S) (from UniProt P40189 761-918; P62993 60-158)
luciferase activity (rPAP1 promoter), fold induction, leptin co-stimulated with forskolin [2]: 2.5 fold

flag-gp130-SVT prey (pMG1-SVT; pMET7-flag-gp130-SVT) (from UniProt P40189 761-918; P03070 261-708)
luciferase activity (rPAP1-luci reporter), fold induction, erythropoietin [3]: 9.4 fold | luciferase activity (rPAP1-luci reporter), fold induction, erythropoietin plus forskolin [3]: 14.6 fold

flag-gp130-VavS prey (pMG1-VavS) (from UniProt P40189 761-918; P15498 259-789)
luciferase activity (rPAP1 promoter), fold induction, leptin [2]: 5.2 fold | luciferase activity (rPAP1 promoter), fold induction, leptin co-stimulated with forskolin [2]: 12 fold

pMG2-Smad4 prey (flag-gp130 with 6 STAT recruitment sites fused to human Smad4) (from UniProt Q13485 4-552)
luciferase activity (rPAP1 promoter), fold induction, GM-CSF [4]: 3 fold | luciferase activity (rPAP1 promoter), fold induction, GM-CSF co-stimulated with forskolin [4]: 37 fold | luciferase activity (rPAP1 promoter), fold induction, GM-CSF [5]: 9 fold | luciferase activity (rPAP1 promoter), fold induction, GM-CSF co-stimulated with forskolin [5]: 71 fold

recombinant human leptin (R&D systems) (from UniProt P41159 22-167) (ligand)
luciferase activity (rPAP1-luci reporter), fold induction, leptin [6]: 33.2 fold | luciferase activity (rPAP1-luci reporter), fold induction, leptin co-stimulated with forskolin [6]: 37.6 fold
